Assay [1] concerns the target M. tuberculosis trehalose synthase TreS (M. tuberculosis H37Rv) (UniProt P9WQ19). Description: AUC.
Assay [2] has the same target. The assay is described as follows: AUC. This is another data set of the same source.

Read-outs that look alike come from different tables or passages of the source.

M. tuberculosis trehalose synthase TreS (M. tuberculosis H37Rv), sequence (P9WQ19 whole entry): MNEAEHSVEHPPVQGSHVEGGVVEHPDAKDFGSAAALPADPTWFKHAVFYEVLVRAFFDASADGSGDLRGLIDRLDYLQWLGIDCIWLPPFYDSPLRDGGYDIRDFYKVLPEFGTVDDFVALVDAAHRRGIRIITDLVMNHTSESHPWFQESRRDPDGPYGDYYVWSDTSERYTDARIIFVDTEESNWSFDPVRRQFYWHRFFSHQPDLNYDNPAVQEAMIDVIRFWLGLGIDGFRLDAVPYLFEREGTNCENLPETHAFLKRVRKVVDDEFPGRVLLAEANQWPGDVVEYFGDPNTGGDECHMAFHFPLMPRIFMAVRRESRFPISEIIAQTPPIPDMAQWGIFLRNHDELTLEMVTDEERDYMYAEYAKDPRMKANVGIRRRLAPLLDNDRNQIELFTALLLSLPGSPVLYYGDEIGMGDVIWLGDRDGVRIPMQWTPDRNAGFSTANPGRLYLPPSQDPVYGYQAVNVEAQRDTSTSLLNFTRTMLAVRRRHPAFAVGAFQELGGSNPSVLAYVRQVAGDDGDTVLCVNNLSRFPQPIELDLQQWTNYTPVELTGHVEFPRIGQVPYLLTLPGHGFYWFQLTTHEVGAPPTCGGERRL

Regarding “M. tuberculosis maltokinase Pep2 (from UniProt O07177 1-455) (enzyme)”, the stoichiometry N (Pep2 subunits per TreS tetramer) in assay [1] was 2; in assay [2], 4.
